Data taken from paper PMC6472409, “Dishevelled-3 conformation dynamics analyzed by FRET-based biosensors reveals a key role of casein kinase 1” (Nature Communications, 2019).

Assays:
[1] = tested on: DVL3 membrane recruitment by FZD6 in HEK293 cells; experiment: FZD6-dependent membrane recruitment of DVL3, immunofluorescence; assay type: cell-based, human; parameters: key to Non-recruited (DVL3 membrane recruitment): number of cells out of 100 positive cells scored; details: Fig 8c
Description: First, we analyzed the preferred subcellular localization of DVL3 (as introduced in Fig. 2c)[10],[14]. […] Next, we investigated if DVL3 conformation correlates with the capacity of DVL3 to be recruited by FZD6, a key Wnt receptor, to the plasma membrane. For this purpose, we co-expressed FZD6 and analyzed membrane recruitment of DVL3 in FZD6-positive cells by immunofluorescence. Individual cells were categorized as: not recruited (Fig. 8b, no DVL3 in the membrane), partially recruited (clear membrane as well as cytoplasmic localization), and fully recruited (predominantly plasma membrane localization, Fig. 8c, left). […] In the last readout we analyzed the capacity of DVL3 to activate downstream Wnt/β-catenin pathway monitored by TopFlash reporter assay (Fig. 8d). […] On the other hand, under conditions that favor the open conformation both activation as well as inhibition of the Wnt/β-catenin pathway was evident.
For immunofluorescence, cells were seeded (40,000 per well) on 24-well plates with gelatin-coated coverslips and transfected, as indicated, with 0.1 μg of each corresponding plasmid (0.3 μg of mCherry-FZD6) for 6 h. For western blotting and Dual Luciferase TopFlash/Renilla Reporter Assay, cells were seeded (60,000 per well) directly on 24-well plates with 0.1 μg of each corresponding plasmid (if not indicated otherwise) for 6 h. For coimmunoprecipitation, cells were seeded (4.4 × 10^6) on 10-cm dishes and transfected with 1 μg of each corresponding plasmid. The next day after seeding, cells were transfected using polyethyleneimine (PEI) in a stoichiometry of 6 μl of PEI per 1 μg of DNA for 6 h and were harvested 24 h after transfection. The following plasmids used in HEK293 cells have been described previously: FLAG-DVL3 wt[47], CK1ϵ wt[48], mCherry-FZD6 (ref. [37]), and dominant-negative CK1ϵ P3 (ref. [33]). The ECFP-DVL3 wt plasmid was made by Gateway Technology (via LR recombination according to the manufacturer’s instructions; Thermo Fisher Scientific, #11791020) from the donor plasmid pDONR221 DVL3 (DNASU, #FLH178665.01x) and the destination plasmid pdECFP (LMBP, #4548). The HA-DVL3 wt plasmid was made by Gateway Technology from the donor plasmid pDONR221 DVL3 (DNASU, #FLH178665.01x) and the destination plasmid pcDNA3.1 N-term HA (gift from Erich Nigg).
Cells were seeded on gelatin-coated coverslips in 24-well plates and were transfected the next day. Cells were fixed 24 h later in fresh 4% paraformaldehyde, permeabilized with 0.5% Triton X-100, blocked with PBS/BSA/Triton/Azide buffer (PBTA) [3% (wt/vol) BSA, 0.25% Triton, 0.01% NaN3] for 1 h, and incubated overnight with primary antibodies (in dilution 1:500) in PBTA at 4 °C. The next day, the coverslips were washed in PBS and incubated with secondary antibodies conjugated to Alexa Fluor 488 (Invitrogen A11001) or/and Alexa Fluor 594 (Invitrogen A11058) (all in dilution 1:1000), washed with PBS [in case of samples containing FLAG-DVL3 WT and derived variants stained with DAPI (1:5000)], and all coverslips were mounted on microscopic slides. Cells were then visualized on an Olympus IX51 fluorescent microscope using ×40 air or ×100 oil objectives and/or an Olympus Fluoview 500 confocal laser scanning microscope IX71 using ×100 oil objective. One hundred positive cells per experiment (n = 3) were analyzed and scored according to their phenotype into two/three categories (punctae/even); or non-recruited/partially/fully recruited for FZD6-dependent recruitment of DVL3. The antibodies used were as follows: anti-FLAG M2 (Sigma-Aldrich, #F1804), anti-DVL3 (Santa Cruz, #sc-8027), anti-CK1ɛ (Santa Cruz, #sc-6471), anti-RFP (Chromotek, #5h9) and anti-GFP (Fitzgerald, #20R-GR-011).

Wnt/β-catenin pathway = experiment: Dual Luciferase TopFlash/Renilla Reporter Assay; assay type: cell-based, human; details: Fig 8d
Procedure: Cells were transfected 24 h after seeding with 0.1 μg of Super8X TopFlash construct, 0.1 μg of Renilla luciferase construct, and 0.1 μg of corresponding plasmids per well for 6 h in a 24-well plate. As for the ECFP-DVL3 FIII wt stable cell lines, transfection was followed by 4 h induction of tetracycline (1 µg/ml) and 8 h treatment of CM:DMEM (1:1 ratio). For performing this assay, Promega Dual Luciferase assay kit (Promega, #E1910) was used according to the manufacturer’s instructions. Luminescence was measured by a Hidex Bioscan Plate Chameleon Luminometer. Results are depicted as the ratio of TopFlash and Renilla signal (TopFlash fold induction), which was normalized for each experiment to certain control column (normalized TopFlash fold induction). Data were analyzed by MS Excel 2007 and GraphPad Prism 6 and results were shown as the means ± S.D. (number of experiments indicated ad hoc).

B1: DVL3 S268A/S311A (protein, UniProt Q92997 1-716, looked up, variant S268A S311A)
Segment polarity protein …: MGETKIIYHLDGQETPYLVKLPLPAERVTLADFKGVLQRPSYKFFFKSMDDDFGVVKEEISDDNAKLPCFNGRVVSWLVSAEGSHPDPAPFCADNPSELPPPMERTGGIGDSRPPSFHPHAGGGSQENLDNDTETDSLVSAQRERPRRRDGPEHATRLNGTAKGERRREPGGYDSSSTLMSSELETTSFFDSDEDDSTSRFSSSTEQSSASRLMRRHKRRRRKQKVSRIERSSSFSSITDSTMSLNIITVTLNMEKYNFLGISIVGQANERGDGGIYIGSIMKGGAVAADGRIEPGDMLLQVNEINFENMANDDAVRVLREIVHKPGPITLTVAKCWDPSPRGCFTLPRSEPIRPIDPAAWVSHTAAMTGTFPAYGMSPSLSTITSTSSSITSSIPDTERLDDFHLSIHSDMAAIVKAMASPESGLEVRDRMWLKITIPNAFIGSDVVDWLYHNVEGFTDRREARKYASNLLKAGFIRHTVNKITFSEQCYYIFGDLCGNMANLSLHDHDGSSGASDQDTLAPLPHPGAAPWPMAFPYQYPPPPHPYNPHPGFPELGYSYGGGSASSQHSEGSRSSGSNRSGSDRRKEKDPKAGDSKSGGSGSESDHTTRSSLRGPRERAPSERSGPAASEHSHRSHHSLASSLRSHHTHPSYGPPGVPPLYGPPMLMMPPPPAAMGPPGAPPGRDLASVPPELTASRQSFRMAMGNPSEFFVDVM
**Q.** How did the “Non-recruited (DVL3 membrane recruitment)” value (from here on “Non-recruited”) ([1]; exp1) turn out when B1 was run?
**A.** 79

**Q.** And the “Partially recruited (DVL3 membrane recruitment)” value (from here on “Partially recruited”) ([1]; exp1)?
**A.** 19

**Q.** What about the “Fully recruited (DVL3 membrane recruitment)” value ([1]; exp2) of the same molecule?
**A.** 11

**Q.** And the “Non-recruited” value ([1]; exp2)?
**A.** 54

**Q.** What about the “Partially recruited” value ([1]; exp2) of the same molecule?
**A.** 35

**Q.** What about the “Fully recruited (DVL3 membrane recruitment)” value ([1]; exp3) of the same molecule?
**A.** 16

**Q.** And the “Non-recruited” value ([1]; exp3)?
**A.** 68

**Q.** And the “Partially recruited” value ([1]; exp3)?
**A.** 16

**Q.** And the “TopFlash relative to DVL3 wt (= 1)” value (Wnt/β-catenin pathway; replicate of grid row r4)?
**A.** 0.2512

**Q.** What about the “TopFlash relative to DVL3 wt (= 1)” value (Wnt/β-catenin pathway; replicate of grid row r5) of the same molecule?
**A.** 0.4095

**Q.** And the “TopFlash relative to DVL3 wt (= 1)” value (Wnt/β-catenin pathway; replicate of grid row r6)?
**A.** 0.2391

**Q.** What about the “TopFlash relative to DVL3 wt (= 1)” value (Wnt/β-catenin pathway; replicate of grid row r7) of the same molecule?
**A.** 0.3021

**Q.** And the “TopFlash relative to DVL3 wt (= 1)” value (Wnt/β-catenin pathway; replicate of grid row r8)?
**A.** 0.4946

**Q.** And the “TopFlash relative to DVL3 wt (= 1)” value (Wnt/β-catenin pathway; replicate of grid row r9)?
**A.** 0.4126

**Q.** And the “TopFlash relative to DVL3 wt (= 1)” value (Wnt/β-catenin pathway; replicate of grid row r10)?
**A.** 0.6059

**Q.** And the “TopFlash relative to DVL3 wt (= 1)” value (Wnt/β-catenin pathway; replicate of grid row r11)?
**A.** 0.4276

**Q.** What about the “TopFlash relative to DVL3 wt (= 1)” value (Wnt/β-catenin pathway; replicate of grid row r12) of the same molecule?
**A.** 0.421

**Q.** What about the “TopFlash relative to DVL3 wt (= 1)” value (Wnt/β-catenin pathway; replicate of grid row r13) of the same molecule?
**A.** 0.43

**Q.** And the “TopFlash relative to DVL3 wt (= 1)” value (Wnt/β-catenin pathway; replicate of grid row r14)?
**A.** 0.3266

B2: DVL3 S268E/S311E (protein, UniProt Q92997 1-716, looked up, variant S268E S311E)
Segment polarity protein …: MGETKIIYHLDGQETPYLVKLPLPAERVTLADFKGVLQRPSYKFFFKSMDDDFGVVKEEISDDNAKLPCFNGRVVSWLVSAEGSHPDPAPFCADNPSELPPPMERTGGIGDSRPPSFHPHAGGGSQENLDNDTETDSLVSAQRERPRRRDGPEHATRLNGTAKGERRREPGGYDSSSTLMSSELETTSFFDSDEDDSTSRFSSSTEQSSASRLMRRHKRRRRKQKVSRIERSSSFSSITDSTMSLNIITVTLNMEKYNFLGISIVGQENERGDGGIYIGSIMKGGAVAADGRIEPGDMLLQVNEINFENMENDDAVRVLREIVHKPGPITLTVAKCWDPSPRGCFTLPRSEPIRPIDPAAWVSHTAAMTGTFPAYGMSPSLSTITSTSSSITSSIPDTERLDDFHLSIHSDMAAIVKAMASPESGLEVRDRMWLKITIPNAFIGSDVVDWLYHNVEGFTDRREARKYASNLLKAGFIRHTVNKITFSEQCYYIFGDLCGNMANLSLHDHDGSSGASDQDTLAPLPHPGAAPWPMAFPYQYPPPPHPYNPHPGFPELGYSYGGGSASSQHSEGSRSSGSNRSGSDRRKEKDPKAGDSKSGGSGSESDHTTRSSLRGPRERAPSERSGPAASEHSHRSHHSLASSLRSHHTHPSYGPPGVPPLYGPPMLMMPPPPAAMGPPGAPPGRDLASVPPELTASRQSFRMAMGNPSEFFVDVM
**Q.** What does the source list for B2?
**A.** Fully recruited (DVL3 membrane recruitment) ([1]; exp1): 11; Non-recruited (DVL3 membrane recruitment) ([1]; exp1): 52; Partially recruited (DVL3 membrane recruitment) ([1]; exp1): 37; Fully recruited (DVL3 membrane recruitment) ([1]; exp2): 20; Non-recruited (DVL3 membrane recruitment) ([1]; exp2): 49; Partially recruited (DVL3 membrane recruitment) ([1]; exp2): 31; Fully recruited (DVL3 membrane recruitment) ([1]; exp3): 10; Non-recruited (DVL3 membrane recruitment) ([1]; exp3): 60; Partially recruited (DVL3 membrane recruitment) ([1]; exp3): 30; TopFlash relative to DVL3 wt (= 1) (Wnt/β-catenin pathway; replicate of grid row r4): 0.8175; TopFlash relative to DVL3 wt (= 1) (Wnt/β-catenin pathway; replicate of grid row r5): 1.687; TopFlash relative to DVL3 wt (= 1) (Wnt/β-catenin pathway; replicate of grid row r6): 1.081; TopFlash relative to DVL3 wt (= 1) (Wnt/β-catenin pathway; replicate of grid row r7): 0.9973; TopFlash relative to DVL3 wt (= 1) (Wnt/β-catenin pathway; replicate of grid row r8): 0.619; TopFlash relative to DVL3 wt (= 1) (Wnt/β-catenin pathway; replicate of grid row r9): 0.5939; TopFlash relative to DVL3 wt (= 1) (Wnt/β-catenin pathway; replicate of grid row r10): 0.8497; TopFlash relative to DVL3 wt (= 1) (Wnt/β-catenin pathway; replicate of grid row r11): 1.052; TopFlash relative to DVL3 wt (= 1) (Wnt/β-catenin pathway; replicate of grid row r12): 1.009; TopFlash relative to DVL3 wt (= 1) (Wnt/β-catenin pathway; replicate of grid row r13): 1.108; TopFlash relative to DVL3 wt (= 1) (Wnt/β-catenin pathway; replicate of grid row r14): 1.265
